Substrate in data set [1]: N[C@@](CF)(Cc1c[nH]c2ccccc12)C(=O)O
Description: Compound was evaluated as a substrate for P815 tryptophan hydroxylase […].

Substrate in data set [2]: N[C@@](CF)(Cc1c[nH]c2ccccc12)C(=O)O
Put plainly: Km value was evaluated as a substrate for P815 tryptophan hydroxylase […].

B1: Tryptophan 5-hydroxylase 1 (Rattus norvegicus), P09810 (protein)
chain: MIEDNKENKDHSSERGRVTLIFSLKNEVGGLIKALKIFQENHVNLLHIESRKSKRRNSEFEIFVDCDINREQLNDIFPLLKSHTTVLSVDSPDQLPEKEDVMETVPWFPKKISDLDFCANRVLLYGSELDADHPGFKDNVYRRRRKYFAELAMNYKHGDPIPKIEFTEEEIKTWGTIFRELNKLYPTHACREYLRNLPLLSKYCGYREDNVPQLEDVSNFLKERTGFSIRPVAGYLSPRDFLSGLAFRVFHCTQYVRHSSDPLYTPEPDTCHELLGHVPLLAEPSFAQFSQEIGLASLGASEETVQKLATCYFFTVEFGLCKQDGQLRVFGAGLLSSISELRHALSGHAKVKPFDPKVACKQECLITSFQDVYFVSESFEDAKEKMREFAKTVKRPFGVKYNPYTQSIQVLRDSKSITSAMNELRHDLDVVNDALARVSRWPSV
The term Km denotes the substrate concentration at which the rate is half of its maximum. As for B1, the Vmax (uM min-1 (mg of protein)-1) in data set [1] was 17.7. In addition, the Km in data set [2] came out at 4.31 mM.
